# In article PMC7565926, “Oncogenic Orphan Nuclear Receptor NR4A3 Interacts and Cooperates with MYB in Acinic Cell Carcinoma” (Cancers, 2020):
# B1: Myb (natural protein)
# chain: not shown
# Biological target: HA-tagged NR4A3 (UniProt Q92570 1-626)
# Assay: cell-based or functional assay
# Sequence of HA-tagged NR4A3 (Q92570 whole entry): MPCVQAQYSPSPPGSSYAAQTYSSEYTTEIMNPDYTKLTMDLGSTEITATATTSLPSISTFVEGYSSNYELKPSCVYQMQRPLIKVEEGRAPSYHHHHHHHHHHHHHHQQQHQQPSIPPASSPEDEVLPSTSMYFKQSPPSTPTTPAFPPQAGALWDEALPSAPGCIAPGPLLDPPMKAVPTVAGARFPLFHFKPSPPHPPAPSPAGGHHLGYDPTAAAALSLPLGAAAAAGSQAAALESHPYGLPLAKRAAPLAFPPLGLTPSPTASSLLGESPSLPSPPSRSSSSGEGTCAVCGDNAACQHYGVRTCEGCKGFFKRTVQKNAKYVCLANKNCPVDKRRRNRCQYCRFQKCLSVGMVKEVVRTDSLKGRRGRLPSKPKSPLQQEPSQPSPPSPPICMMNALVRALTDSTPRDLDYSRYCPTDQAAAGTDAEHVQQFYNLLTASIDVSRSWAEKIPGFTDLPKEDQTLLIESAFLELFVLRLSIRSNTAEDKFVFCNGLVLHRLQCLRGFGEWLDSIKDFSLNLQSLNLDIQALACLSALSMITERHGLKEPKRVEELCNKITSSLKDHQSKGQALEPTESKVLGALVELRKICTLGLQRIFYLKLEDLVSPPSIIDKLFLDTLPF
binder,measurement,value
B1,activation of the NurRE luciferase reporter in HeLa cells on co-expression of full-length Myb with NR4A3 (NR4A3 by itself 6-fold),27 fold
